# Earlier results in patent publication US12544428B2, “Controlled-release CNP agonists with reduced side-effects” (ASCENDIS PHARMA GROWTH DISORDERS A/S, priority 2016, dated 2026).
# Bridge positions count the residues as written; N and C are the ends. Ends that are not written are not given here.
# Conditions: Phase 1 study, healthy volunteers; cited from earlier work
substance,measurement,value
"BMN-111: a CNP variant with increased NEP resistance in development for the treatment of achondroplasia (PGQEHPNARKYKGANKKGLSKGCFGLKLDRIGSMSGLGC; disulfide 23-39; chains of the INN, looked up)",hypotension,mild hypotension
